Assay results from paper PMC8902505, “A Continuous Assay Set to Screen and Characterize Novel Protein N-Acetyltransferases Unveils Rice General Control Non-repressible 5-Related N-Acetyltransferase2 Activity” (Frontiers in Plant Science, 2022).

Columns and labels:
[1] = target: T1, OsGNAT2 (Oryza sativa, UniProt Q5KQI6); assay: PDH-coupled continuous assay (NADH, […] nm); assay type: biochemical; settings: upper bound inferred from no gain between 100 and 500 μM Ac-CoA; peptide substrate; pH 8.0; 30 °C
T1 construct: gene SNAT1
T1 sequence (Q5KQI6 89-254): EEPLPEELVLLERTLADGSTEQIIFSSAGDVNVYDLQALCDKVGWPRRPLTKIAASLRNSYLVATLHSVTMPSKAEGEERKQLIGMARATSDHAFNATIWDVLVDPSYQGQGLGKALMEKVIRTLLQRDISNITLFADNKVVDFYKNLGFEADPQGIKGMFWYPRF

[2] = target: Schizosaccharomyces pombe NatA (SpNaa15 full length + SpNaa10 full length heterodimer) (Schizosaccharomyces pombe)
[3] = target: Schizosaccharomyces pombe NatA (SpNaa15 full length + SpNaa10 full length heterodimer) (Schizosaccharomyces pombe); remark: listed apart in the source
[4] = substrate: CC(=O)SCCNC(=O)CCNC(=O)[C@H](O)C(C)(C)COP(=O)(O)OP(=O)(O)OC[C@H]1O[C@@H](n2cnc3c(N)ncnc32)[C@H](O)[C@@H]1OP(=O)(O)O; assay: purified protein; settings: extrapolated to saturating reference peptide …, 12.5-500 μM Ac-CoA, pH 8.0, 30 °C

Km of the peptide substrate, PDH-coupled acetylation assay, 100 μM Ac-CoA, 30°C (value as told in the text) [2]	Km of the peptide substrate, PDH-coupled acetylation assay, 100 μM Ac-CoA, 30°C [3]	Molecule	also measured
		CC(=O)SCCNC(=O)CCNC(=O)[C@H](O)C(C)(C)COP(=O)(O)OP(=O)(O)OC[C@H]1O[C@@H](n2cnc3c(N)ncnc32)[C@H](O)[C@@H]1OP(=O)(O)O [Ac-CoA]	Km [1]: < 0.03 mM
12 mM	14.8 mM	SASEAGVR [peptide SASEAGVR]	
	2.3 mM	SASEAGVAEQVKKLSVNDS [natural 19-amino acid N-terminal sequence of yeast Ths1p, …]	
19 mM	25.5 mM	SASEAGV [peptide SASEAGV]	
	1 mM	SASEAGVRWGRPVGRRRRP [reference peptide … (canonical NatA substrate)]	
		SpNatA (Schizosaccharomyces pombe 972h-) (protein) MDIRPARISDLTGMQNCNLHNLPENYQLKYYLYHAISWPMLSYVATDPKGRVVGYVLAKMEEEPKDGIPHGHITSVSVMRSYRHLGLAKRLMVQSQRAMVEVYGAKYMSLHVRKSNRAAIHLYRDTLQFDVQGIESKYYADGEDAYAMHKDFSTLKFDTPETNDELAKTVQSLALNN	Km [4]: 0.020 ± 0.003 mM; kcat [4]: 10 s⁻¹; kcat/Km [4]: 508000 ± 89900 M⁻¹ s⁻¹
